Experimental data: patent US20160272683A1 (Novo Nordisk, published 2016)
Blank lines part the entries; values can stand above or below the binder they belong to. Numbered stars: 1 amine (or outer) side, 2 acyl side, 3 side chain; on linkers, the order of the positions; unused ones are H or OH. * marks the point of attachment. C20 diacid = O=C(O)CCCCCCCCCCCCCCCCCCC(=O)*; C18 diacid = O=C(O)CCCCCCCCCCCCCCCCC(=O)*; γGlu = O=C(O)[C@H](CCC(=O)[*:2])N[*:1]

Experiments:
[1] = target: T1, human amylin 3(a) receptor (human calcitonin receptor co-expressed with RAMP-3) (human, UniProt P30988 25-474; O60896 24-148, limits assumed); assay: cell-based or functional assay
T1 sequence (looked up) 1: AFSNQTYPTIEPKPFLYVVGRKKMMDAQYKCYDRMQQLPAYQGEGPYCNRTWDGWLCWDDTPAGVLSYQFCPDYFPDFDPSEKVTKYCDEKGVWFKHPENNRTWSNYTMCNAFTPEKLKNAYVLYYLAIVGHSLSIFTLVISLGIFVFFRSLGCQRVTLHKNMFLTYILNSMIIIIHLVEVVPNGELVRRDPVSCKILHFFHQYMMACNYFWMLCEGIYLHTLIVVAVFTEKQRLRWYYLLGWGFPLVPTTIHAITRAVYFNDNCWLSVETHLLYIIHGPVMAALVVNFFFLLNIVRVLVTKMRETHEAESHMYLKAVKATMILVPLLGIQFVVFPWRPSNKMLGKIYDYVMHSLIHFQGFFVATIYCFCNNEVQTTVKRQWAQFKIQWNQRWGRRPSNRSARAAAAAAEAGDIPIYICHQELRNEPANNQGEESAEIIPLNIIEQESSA
T1 sequence (looked up) 2: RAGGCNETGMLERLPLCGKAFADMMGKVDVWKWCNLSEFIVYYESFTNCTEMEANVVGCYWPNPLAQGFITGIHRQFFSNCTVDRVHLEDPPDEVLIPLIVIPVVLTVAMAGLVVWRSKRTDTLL

[2] = target: T2, human calcitonin receptor (human, UniProt P30988 25-474); assay: cell-based or functional assay
T2 sequence (looked up): T1 sequence (looked up) 1

hAmylin-R funct. EC50 (pM) [1]: 6 pM | hCTR funct. EC50 (pM) [2]: 5 pM
B1: [N-terminal(C18 diacid), 20I]mimylin (peptide)
peptide: {C18 diacid}-EASELSTAALGRLSAELHEIATLPRTETGPESP-NH2
SMILES: CC[C@H](C)[C@H](NC(=O)[C@H](CCC(=O)O)NC(=O)[C@H](Cc1c[nH]cn1)NC(=O)[C@H](CC(C)C)NC(=O)[C@H](CCC(=O)O)NC(=O)[C@H](C)NC(=O)[C@H](CO)NC(=O)[C@H](CC(C)C)NC(=O)[C@H](CCCNC(=N)N)NC(=O)CNC(=O)[C@H](CC(C)C)NC(=O)[C@H](C)NC(=O)[C@H](C)NC(=O)[C@@H](NC(=O)[C@H](CO)NC(=O)[C@H](CC(C)C)NC(=O)[C@H](CCC(=O)O)NC(=O)[C@H](CO)NC(=O)[C@H](C)NC(=O)[C@H](CCC(=O)O)NC(=O)CCCCCCCCCCCCCCCCC(=O)O)[C@@H](C)O)C(=O)N[C@@H](C)C(=O)N[C@H](C(=O)N[C@@H](CC(C)C)C(=O)N1CCC[C@H]1C(=O)N[C@@H](CCCNC(=N)N)C(=O)N[C@H](C(=O)N[C@@H](CCC(=O)O)C(=O)N[C@H](C(=O)NCC(=O)N1CCC[C@H]1C(=O)N[C@@H](CCC(=O)O)C(=O)N[C@@H](CO)C(=O)N1CCC[C@H]1C(N)=O)[C@@H](C)O)[C@@H](C)O)[C@@H](C)O

hAmylin-R funct. EC50 (pM) [1]: 23 pM | hCTR funct. EC50 (pM) [2]: 19 pM
B2: [N-terminal(C20 diacid-gGlu), des1, 4G, 9T, 15Q, 21Q, 23Y, 25P, 30S, 31G, 32T, 33Y]mimylin (peptide)
peptide: {C20 diacid-γGlu}-ASGLSTATLGRLSQELHELQTYPPTETGSGTY-NH2
SMILES: CC(C)C[C@H](NC(=O)CNC(=O)[C@H](CO)NC(=O)[C@H](C)NC(=O)CC[C@H](NC(=O)CCCCCCCCCCCCCCCCCCC(=O)O)C(=O)O)C(=O)N[C@@H](CO)C(=O)N[C@H](C(=O)N[C@@H](C)C(=O)N[C@H](C(=O)N[C@@H](CC(C)C)C(=O)NCC(=O)N[C@@H](CCCNC(=N)N)C(=O)N[C@@H](CC(C)C)C(=O)N[C@@H](CO)C(=O)N[C@@H](CCC(N)=O)C(=O)N[C@@H](CCC(=O)O)C(=O)N[C@@H](CC(C)C)C(=O)N[C@@H](Cc1c[nH]cn1)C(=O)N[C@@H](CCC(=O)O)C(=O)N[C@@H](CC(C)C)C(=O)N[C@@H](CCC(N)=O)C(=O)N[C@H](C(=O)N[C@@H](Cc1ccc(O)cc1)C(=O)N1CCC[C@H]1C(=O)N1CCC[C@H]1C(=O)N[C@H](C(=O)N[C@@H](CCC(=O)O)C(=O)N[C@H](C(=O)NCC(=O)N[C@@H](CO)C(=O)NCC(=O)N[C@H](C(=O)N[C@@H](Cc1ccc(O)cc1)C(N)=O)[C@@H](C)O)[C@@H](C)O)[C@@H](C)O)[C@@H](C)O)[C@@H](C)O)[C@@H](C)O

hAmylin-R funct. EC50 (pM) [1]: 25 pM | hCTR funct. EC50 (pM) [2]: 25 pM
B3: [N-terminal(C20 diacid-gGlu), 2L, 4G, 8L, 9V, 15Q, 21Q, 23Y, 27G, 30S, 31G, 32T, 33Y]mimylin (peptide)
peptide: {C20 diacid-γGlu}-ELSGLSTLVLGRLSQELHELQTYPRTGTGSGTY-NH2
SMILES: CC(C)C[C@H](NC(=O)CNC(=O)[C@H](CO)NC(=O)[C@H](CC(C)C)NC(=O)[C@H](CCC(=O)O)NC(=O)CC[C@H](NC(=O)CCCCCCCCCCCCCCCCCCC(=O)O)C(=O)O)C(=O)N[C@@H](CO)C(=O)N[C@H](C(=O)N[C@@H](CC(C)C)C(=O)N[C@H](C(=O)N[C@@H](CC(C)C)C(=O)NCC(=O)N[C@@H](CCCNC(=N)N)C(=O)N[C@@H](CC(C)C)C(=O)N[C@@H](CO)C(=O)N[C@@H](CCC(N)=O)C(=O)N[C@@H](CCC(=O)O)C(=O)N[C@@H](CC(C)C)C(=O)N[C@@H](Cc1c[nH]cn1)C(=O)N[C@@H](CCC(=O)O)C(=O)N[C@@H](CC(C)C)C(=O)N[C@@H](CCC(N)=O)C(=O)N[C@H](C(=O)N[C@@H](Cc1ccc(O)cc1)C(=O)N1CCC[C@H]1C(=O)N[C@@H](CCCNC(=N)N)C(=O)N[C@H](C(=O)NCC(=O)N[C@H](C(=O)NCC(=O)N[C@@H](CO)C(=O)NCC(=O)N[C@H](C(=O)N[C@@H](Cc1ccc(O)cc1)C(N)=O)[C@@H](C)O)[C@@H](C)O)[C@@H](C)O)[C@@H](C)O)C(C)C)[C@@H](C)O

hAmylin-R funct. EC50 (pM) [1]: 31 pM | hCTR funct. EC50 (pM) [2]: 31 pM
B4: [N-terminal(C20 diacid-gGlu), des1, 2L, 4G, 9V, 15Q, 21Q, 23Y, 30S, 31Q, 32T, 33Y]mimylin (peptide)
peptide: {C20 diacid-γGlu}-LSGLSTAVLGRLSQELHELQTYPRTETGSQTY-NH2
SMILES: CC(C)C[C@H](NC(=O)CC[C@H](NC(=O)CCCCCCCCCCCCCCCCCCC(=O)O)C(=O)O)C(=O)N[C@@H](CO)C(=O)NCC(=O)N[C@@H](CC(C)C)C(=O)N[C@@H](CO)C(=O)N[C@H](C(=O)N[C@@H](C)C(=O)N[C@H](C(=O)N[C@@H](CC(C)C)C(=O)NCC(=O)N[C@@H](CCCNC(=N)N)C(=O)N[C@@H](CC(C)C)C(=O)N[C@@H](CO)C(=O)N[C@@H](CCC(N)=O)C(=O)N[C@@H](CCC(=O)O)C(=O)N[C@@H](CC(C)C)C(=O)N[C@@H](Cc1c[nH]cn1)C(=O)N[C@@H](CCC(=O)O)C(=O)N[C@@H](CC(C)C)C(=O)N[C@@H](CCC(N)=O)C(=O)N[C@H](C(=O)N[C@@H](Cc1ccc(O)cc1)C(=O)N1CCC[C@H]1C(=O)N[C@@H](CCCNC(=N)N)C(=O)N[C@H](C(=O)N[C@@H](CCC(=O)O)C(=O)N[C@H](C(=O)NCC(=O)N[C@@H](CO)C(=O)N[C@@H](CCC(N)=O)C(=O)N[C@H](C(=O)N[C@@H](Cc1ccc(O)cc1)C(N)=O)[C@@H](C)O)[C@@H](C)O)[C@@H](C)O)[C@@H](C)O)C(C)C)[C@@H](C)O

hAmylin-R funct. EC50 (pM) [1]: 54 pM | hCTR funct. EC50 (pM) [2]: 45 pM
B5: [N-terminal(C20 diacid-gGlu), des1, 4G, 9V, 15Q, 21Q, 23aQ, 23bT, 23cY, 30S, 31Q, 32T, 33Y]mimylin (peptide)
peptide: {C20 diacid-γGlu}-ASGLSTAVLGRLSQELHELQTLQTYPRTETGSQTY-NH2
SMILES: CC(C)C[C@H](NC(=O)CNC(=O)[C@H](CO)NC(=O)[C@H](C)NC(=O)CC[C@H](NC(=O)CCCCCCCCCCCCCCCCCCC(=O)O)C(=O)O)C(=O)N[C@@H](CO)C(=O)N[C@H](C(=O)N[C@@H](C)C(=O)N[C@H](C(=O)N[C@@H](CC(C)C)C(=O)NCC(=O)N[C@@H](CCCNC(=N)N)C(=O)N[C@@H](CC(C)C)C(=O)N[C@@H](CO)C(=O)N[C@@H](CCC(N)=O)C(=O)N[C@@H](CCC(=O)O)C(=O)N[C@@H](CC(C)C)C(=O)N[C@@H](Cc1c[nH]cn1)C(=O)N[C@@H](CCC(=O)O)C(=O)N[C@@H](CC(C)C)C(=O)N[C@@H](CCC(N)=O)C(=O)N[C@H](C(=O)N[C@@H](CC(C)C)C(=O)N[C@@H](CCC(N)=O)C(=O)N[C@H](C(=O)N[C@@H](Cc1ccc(O)cc1)C(=O)N1CCC[C@H]1C(=O)N[C@@H](CCCNC(=N)N)C(=O)N[C@H](C(=O)N[C@@H](CCC(=O)O)C(=O)N[C@H](C(=O)NCC(=O)N[C@@H](CO)C(=O)N[C@@H](CCC(N)=O)C(=O)N[C@H](C(=O)N[C@@H](Cc1ccc(O)cc1)C(N)=O)[C@@H](C)O)[C@@H](C)O)[C@@H](C)O)[C@@H](C)O)[C@@H](C)O)C(C)C)[C@@H](C)O
